Source: patent US20250084142A1 (INTARCIA THERAPEUTICS, published 2025)
Starred links: 1 amine or outer side, 2 acyl side, 3 side chain; linkers in the order of their positions; H or OH if unused. Non-standard residues stand in square brackets, D forms with d. Groups on a side chain read outwards from the residue. No end group written: not given here. *: point of attachment. dpeg = —[CO(CH2)O(CH2)2O(CH2)NH]— spacer, O=C(COCCOCN[*:1])[*:2]; C20 diacid = O=C(O)CCCCCCCCCCCCCCCCCCC(=O)*; γGlu = O=C(O)[C@H](CCC(=O)[*:2])N[*:1]; NMeY = CN[C@@H](Cc1ccc(O)cc1)C(=O)O

T1: NPY2R
T1 sequence (P49146 1-381, species assumed, looked up): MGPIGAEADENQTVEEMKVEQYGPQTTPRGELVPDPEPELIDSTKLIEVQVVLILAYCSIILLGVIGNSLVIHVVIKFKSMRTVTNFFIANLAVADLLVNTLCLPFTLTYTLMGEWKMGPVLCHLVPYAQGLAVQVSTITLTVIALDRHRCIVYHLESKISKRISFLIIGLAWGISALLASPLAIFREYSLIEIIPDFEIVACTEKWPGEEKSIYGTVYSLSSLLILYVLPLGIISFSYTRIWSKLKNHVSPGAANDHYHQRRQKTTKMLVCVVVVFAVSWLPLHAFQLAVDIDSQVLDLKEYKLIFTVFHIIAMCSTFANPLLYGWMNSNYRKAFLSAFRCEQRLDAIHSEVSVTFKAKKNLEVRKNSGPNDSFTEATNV

T2: NPY5R
T2 sequence (Q15761 1-445, species assumed, looked up): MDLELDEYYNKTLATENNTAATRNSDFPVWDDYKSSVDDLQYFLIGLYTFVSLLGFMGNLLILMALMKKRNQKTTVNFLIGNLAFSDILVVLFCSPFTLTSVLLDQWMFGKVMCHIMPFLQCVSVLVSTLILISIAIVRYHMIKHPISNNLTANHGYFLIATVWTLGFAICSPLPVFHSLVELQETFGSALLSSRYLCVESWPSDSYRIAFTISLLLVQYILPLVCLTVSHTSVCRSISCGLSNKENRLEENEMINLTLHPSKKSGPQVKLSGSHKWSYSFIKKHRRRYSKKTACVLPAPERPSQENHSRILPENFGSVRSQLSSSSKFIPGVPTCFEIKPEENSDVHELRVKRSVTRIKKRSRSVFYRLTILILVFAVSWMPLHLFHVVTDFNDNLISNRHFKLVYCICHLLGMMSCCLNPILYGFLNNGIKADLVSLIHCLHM

B1: Compound A21 (peptide)
peptide: PKPEAPGK([γGlu-γGlu-C20 diacid])DASPEEWNRYY[dK]DLRHYLNWLTRQRF-NH2
B2: Compound A16 (peptide)
peptide: PKPEAPGKDASPEEWNRYYK([γGlu-dpeg-dpeg-γGlu-C20 diacid])DLRHYLNWLTRQRF-NH2
B3: Compound A20 (peptide)
peptide: PKPEAPGK([γGlu-γGlu-C20 diacid])DASPKEWNRYYKDLRHYLNWLTRQRF-NH2
B4: Compound A23 (peptide)
peptide: PKPEAPGK([γGlu-γGlu-C20 diacid])DASPEEWQRYYKDLRHYLNWLTRQRF-NH2
B5: Compound A15 (peptide)
peptide: PKPEAPG[dK]([γGlu-γGlu-C20 diacid])DASPEEWNRYYADLRHYLNWLTRQRF-NH2
B6: Compound A9 (peptide)
peptide: PKPEAPGKDASPEEWK([γGlu-γGlu-C20 diacid])RYYADARHYLNWLTRQR[NMeY]-NH2
modifications: N-terminus assumed
SMILES: CC(C)C[C@H](NC(=O)[C@H](Cc1ccc(O)cc1)NC(=O)[C@H](Cc1c[nH]cn1)NC(=O)[C@H](CCCNC(=N)N)NC(=O)[C@H](C)NC(=O)[C@H](CC(=O)O)NC(=O)[C@H](C)NC(=O)[C@H](Cc1ccc(O)cc1)NC(=O)[C@H](Cc1ccc(O)cc1)NC(=O)[C@H](CCCNC(=N)N)NC(=O)[C@H](CCCCNC(=O)CC[C@H](NC(=O)CC[C@H](NC(=O)CCCCCCCCCCCCCCCCCCC(=O)O)C(=O)O)C(=O)O)NC(=O)[C@H](Cc1c[nH]c2ccccc12)NC(=O)[C@H](CCC(=O)O)NC(=O)[C@H](CCC(=O)O)NC(=O)[C@@H]1CCCN1C(=O)[C@H](CO)NC(=O)[C@H](C)NC(=O)[C@H](CC(=O)O)NC(=O)[C@H](CCCCN)NC(=O)CNC(=O)[C@@H]1CCCN1C(=O)[C@H](C)NC(=O)[C@H](CCC(=O)O)NC(=O)[C@@H]1CCCN1C(=O)[C@H](CCCCN)NC(=O)[C@@H]1CCCN1)C(=O)N[C@@H](CC(N)=O)C(=O)N[C@@H](Cc1c[nH]c2ccccc12)C(=O)N[C@@H](CC(C)C)C(=O)N[C@H](C(=O)N[C@@H](CCCNC(=N)N)C(=O)N[C@@H](CCC(N)=O)C(=O)N[C@@H](CCCNC(=N)N)C(=O)N(C)[C@@H](Cc1ccc(O)cc1)C(N)=O)[C@@H](C)O
B7: Compound A24 (peptide)
peptide: PKPEAPGK([γGlu-γGlu-C20 diacid])DASPEEWDRYYKDLRHYLNWLTRQRF-NH2
B8: Compound A17 (peptide)
peptide: PKPEAPGK([γGlu-dpeg-dpeg-γGlu-C20 diacid])DASPEEWNRYYADLRHYLNWLTRQRF-NH2
modifications: N-terminus assumed
SMILES: CC(C)C[C@H](NC(=O)[C@H](CC(=O)O)NC(=O)[C@H](C)NC(=O)[C@H](Cc1ccc(O)cc1)NC(=O)[C@H](Cc1ccc(O)cc1)NC(=O)[C@H](CCCNC(=N)N)NC(=O)[C@H](CC(N)=O)NC(=O)[C@H](Cc1c[nH]c2ccccc12)NC(=O)[C@H](CCC(=O)O)NC(=O)[C@H](CCC(=O)O)NC(=O)[C@@H]1CCCN1C(=O)[C@H](CO)NC(=O)[C@H](C)NC(=O)[C@H](CC(=O)O)NC(=O)[C@H](CCCCNC(=O)CC[C@H](NC(=O)COCCOCNC(=O)COCCOCNC(=O)CC[C@H](NC(=O)CCCCCCCCCCCCCCCCCCC(=O)O)C(=O)O)C(=O)O)NC(=O)CNC(=O)[C@@H]1CCCN1C(=O)[C@H](C)NC(=O)[C@H](CCC(=O)O)NC(=O)[C@@H]1CCCN1C(=O)[C@H](CCCCN)NC(=O)[C@@H]1CCCN1)C(=O)N[C@@H](CCCNC(=N)N)C(=O)N[C@@H](Cc1c[nH]cn1)C(=O)N[C@@H](Cc1ccc(O)cc1)C(=O)N[C@@H](CC(C)C)C(=O)N[C@@H](CC(N)=O)C(=O)N[C@@H](Cc1c[nH]c2ccccc12)C(=O)N[C@@H](CC(C)C)C(=O)N[C@H](C(=O)N[C@@H](CCCNC(=N)N)C(=O)N[C@@H](CCC(N)=O)C(=O)N[C@@H](CCCNC(=N)N)C(=O)N[C@@H](Cc1ccccc1)C(N)=O)[C@@H](C)O
B9: Compound A25 (peptide)
peptide: PKPEAPGK([γGlu-γGlu-C20 diacid])DASPEEWSRYYKDLRHYLNWLTRQRF-NH2
B10: Compound A18 (peptide)
peptide: PKPEAPG[dK]([γGlu-dpeg-dpeg-γGlu-C20 diacid])DASPEEWNRYYADLRHYLNWLTRQRF-NH2
modifications: N-terminus assumed
SMILES: CC(C)C[C@H](NC(=O)[C@H](CC(=O)O)NC(=O)[C@H](C)NC(=O)[C@H](Cc1ccc(O)cc1)NC(=O)[C@H](Cc1ccc(O)cc1)NC(=O)[C@H](CCCNC(=N)N)NC(=O)[C@H](CC(N)=O)NC(=O)[C@H](Cc1c[nH]c2ccccc12)NC(=O)[C@H](CCC(=O)O)NC(=O)[C@H](CCC(=O)O)NC(=O)[C@@H]1CCCN1C(=O)[C@H](CO)NC(=O)[C@H](C)NC(=O)[C@H](CC(=O)O)NC(=O)[C@@H](CCCCNC(=O)CC[C@H](NC(=O)COCCOCNC(=O)COCCOCNC(=O)CC[C@H](NC(=O)CCCCCCCCCCCCCCCCCCC(=O)O)C(=O)O)C(=O)O)NC(=O)CNC(=O)[C@@H]1CCCN1C(=O)[C@H](C)NC(=O)[C@H](CCC(=O)O)NC(=O)[C@@H]1CCCN1C(=O)[C@H](CCCCN)NC(=O)[C@@H]1CCCN1)C(=O)N[C@@H](CCCNC(=N)N)C(=O)N[C@@H](Cc1c[nH]cn1)C(=O)N[C@@H](Cc1ccc(O)cc1)C(=O)N[C@@H](CC(C)C)C(=O)N[C@@H](CC(N)=O)C(=O)N[C@@H](Cc1c[nH]c2ccccc12)C(=O)N[C@@H](CC(C)C)C(=O)N[C@H](C(=O)N[C@@H](CCCNC(=N)N)C(=O)N[C@@H](CCC(N)=O)C(=O)N[C@@H](CCCNC(=N)N)C(=O)N[C@@H](Cc1ccccc1)C(N)=O)[C@@H](C)O
B11: Compound A13 (peptide)
peptide: PKPEAPGK([γGlu-γGlu-C20 diacid])DASPEEWNRYYADLRHYLNWLTRQRF-NH2
B12: Compound A19 (peptide)
peptide: PKPEKPGK([γGlu-γGlu-C20 diacid])DASPEEWNRYYKDLRHYLNWLTRQRF-NH2
modifications: N-terminus assumed
SMILES: CC(C)C[C@H](NC(=O)[C@H](CC(=O)O)NC(=O)[C@H](CCCCN)NC(=O)[C@H](Cc1ccc(O)cc1)NC(=O)[C@H](Cc1ccc(O)cc1)NC(=O)[C@H](CCCNC(=N)N)NC(=O)[C@H](CC(N)=O)NC(=O)[C@H](Cc1c[nH]c2ccccc12)NC(=O)[C@H](CCC(=O)O)NC(=O)[C@H](CCC(=O)O)NC(=O)[C@@H]1CCCN1C(=O)[C@H](CO)NC(=O)[C@H](C)NC(=O)[C@H](CC(=O)O)NC(=O)[C@H](CCCCNC(=O)CC[C@H](NC(=O)CC[C@H](NC(=O)CCCCCCCCCCCCCCCCCCC(=O)O)C(=O)O)C(=O)O)NC(=O)CNC(=O)[C@@H]1CCCN1C(=O)[C@H](CCCCN)NC(=O)[C@H](CCC(=O)O)NC(=O)[C@@H]1CCCN1C(=O)[C@H](CCCCN)NC(=O)[C@@H]1CCCN1)C(=O)N[C@@H](CCCNC(=N)N)C(=O)N[C@@H](Cc1c[nH]cn1)C(=O)N[C@@H](Cc1ccc(O)cc1)C(=O)N[C@@H](CC(C)C)C(=O)N[C@@H](CC(N)=O)C(=O)N[C@@H](Cc1c[nH]c2ccccc12)C(=O)N[C@@H](CC(C)C)C(=O)N[C@H](C(=O)N[C@@H](CCCNC(=N)N)C(=O)N[C@@H](CCC(N)=O)C(=O)N[C@@H](CCCNC(=N)N)C(=O)N[C@@H](Cc1ccccc1)C(N)=O)[C@@H](C)O
B13: Compound A26 (peptide)
peptide: PKPEAPGK([γGlu-γGlu-C20 diacid])DASPEEWTRYYKDLRHYLNWLTRQRF-NH2

Biological target: T1, NPY2R
Assay: cell-based or functional assay

**Q.** Which “NPY2R pEC50” value does the source give for B1 here?
**A.** 10.4 -Log(EC50, M)

**Q.** For B2, which “NPY2R pEC50” value is on record?
**A.** 10.2 -Log(EC50, M)

**Q.** Which “NPY2R pEC50” value does the source give for B3 here?
**A.** 10.5 -Log(EC50, M)

**Q.** How did the “NPY2R pEC50” value turn out when B4 was run?
**A.** 10.4 -Log(EC50, M)

**Q.** For B5, which “NPY2R pEC50” value is on record?
**A.** 10.2 -Log(EC50, M)

**Q.** For B6, which “NPY2R pEC50” value is on record?
**A.** 9.6 -Log(EC50, M)

**Q.** For B7, which “NPY2R pEC50” value is on record?
**A.** 10.5 -Log(EC50, M)

**Q.** For B8, which “NPY2R pEC50” value is on record?
**A.** 10.2 -Log(EC50, M)

**Q.** Which “NPY2R pEC50” value does the source give for B9 here?
**A.** 10.9 -Log(EC50, M)

**Q.** How did the “NPY2R pEC50” value turn out when B10 was run?
**A.** 10.3 -Log(EC50, M)

**Q.** With B11 as the binder, how does the “NPY2R pEC50” value read?
**A.** 10.2 -Log(EC50, M)

**Q.** Which “NPY2R pEC50” value does the source give for B12 here?
**A.** 10.5 -Log(EC50, M)

**Q.** With B13 as the binder, how does the “NPY2R pEC50” value read?
**A.** 10.7 -Log(EC50, M)

Biological target: T2, NPY5R
Assay: cell-based or functional assay

**Q.** With B1 as the binder, how does the “NPY5R pEC50” value read?
**A.** 8.3 -Log(EC50, M)

**Q.** For B2, which “NPY5R pEC50” value is on record?
**A.** 9.1 -Log(EC50, M)

**Q.** Which “NPY5R pEC50” value does the source give for B3 here?
**A.** 8.7 -Log(EC50, M)

**Q.** How did the “NPY5R pEC50” value turn out when B4 was run?
**A.** 8.6 -Log(EC50, M)

**Q.** With B5 as the binder, how does the “NPY5R pEC50” value read?
**A.** 8 -Log(EC50, M)

**Q.** For B6, which “NPY5R pEC50” value is on record?
**A.** 6 -Log(EC50, M)

**Q.** How did the “NPY5R pEC50” value turn out when B7 was run?
**A.** 8.7 -Log(EC50, M)

**Q.** Which “NPY5R pEC50” value does the source give for B8 here?
**A.** 8.7 -Log(EC50, M)

**Q.** How did the “NPY5R pEC50” value turn out when B9 was run?
**A.** 8.4 -Log(EC50, M)

**Q.** For B10, which “NPY5R pEC50” value is on record?
**A.** 9.3 -Log(EC50, M)

**Q.** How did the “NPY5R pEC50” value turn out when B11 was run?
**A.** 8.7 -Log(EC50, M)

**Q.** With B12 as the binder, how does the “NPY5R pEC50” value read?
**A.** 8.7 -Log(EC50, M)

**Q.** With B13 as the binder, how does the “NPY5R pEC50” value read?
**A.** 8.5 -Log(EC50, M)
